A word on the Kd: it is the concentration at which binding is half-saturated. What is called koff is the first-order rate constant of dissociation. For orientation: kon means the second-order rate constant of association.

We go through 4 molecules from US20210301020A1 (Amgen, published 2021).

The target in test [1] is human LILRB1 expressed on cells (Jurkat reporter cells; primary human cells; human CD8+ T cells) (human) (UniProt Q8NHL6). Description: flow cytometry, control on LILRB1 expressed by primary human cells. (In general: A flow cytometer gives signals particle by particle.)
For test [2] the target is unchanged. Nature of the test: cell-based or functional assay.
For test [3] the target is unchanged. Nature of the test: flow cytometry, hybridoma supernatant on LILRB1 expressed by primary human cells.
The target of test [4] is T1, Recombinant human LILRB1 (R&D Systems) (human, UniProt Q8NHL6 24-458, limits assumed).
T1 construct: Soluble analyte in the Octet assay
T1 sequence (Q8NHL6 24-458 limits assumed): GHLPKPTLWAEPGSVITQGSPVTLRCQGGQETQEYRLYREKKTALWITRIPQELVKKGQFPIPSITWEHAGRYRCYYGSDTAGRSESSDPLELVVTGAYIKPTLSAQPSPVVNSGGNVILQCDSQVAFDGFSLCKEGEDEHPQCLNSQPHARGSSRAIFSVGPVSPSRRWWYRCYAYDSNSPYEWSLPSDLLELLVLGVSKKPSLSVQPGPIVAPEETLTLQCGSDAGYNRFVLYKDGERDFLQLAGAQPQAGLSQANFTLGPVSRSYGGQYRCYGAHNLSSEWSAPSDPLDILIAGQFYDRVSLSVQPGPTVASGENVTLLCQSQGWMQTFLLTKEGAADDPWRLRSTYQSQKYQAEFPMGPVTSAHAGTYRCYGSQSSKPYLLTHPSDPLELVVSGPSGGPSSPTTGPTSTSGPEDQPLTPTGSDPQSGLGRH
Description: BLI, ForteBio Octet HTX, antibody captured by anti-human Fc on SA sensors, soluble LILRB1 as analyte, 25 C, 1:1 model. As to the method: Affinity was measured on ForteBio Octet HTX (Molecular Devices) using SA biosensors (cat 18-5010) using assay buffer comprised of 10 mM Tris, 0.1% TritonX, 150 mM NaCl, 1 mM CaCl₂), 1 mg/mL BSA, pH 7.4. Assay was conducted at 25° C. and 1:1 model was used to fit the curves. Biotinylated goat anti-human Fc at 0.75 ug/mL was captured on SA sensors and antibodies as unpurified but quantified hybridoma supernatant were loaded on the sensor at 2 ug/mL for 600 seconds. Recombinant human LILRB1 (R&D Systems) titrated 1:2 from 25 nM was allowed to bind for 5 minutes, then dissociation was measured for 20 minutes.
A general note: Biolayer interferometry detects binding as a change in optical thickness at a sensor tip.

Numbering of substitutions follows the chain as printed.

In the case of Isotype control (Table 2) (antibody), in test [1], the FACS GeoMean test 2 was found to be 359 and the FACS GeoMean, test 1 stood at 73.

B1: anti-LILRB1 antibody 30A10 (antibody, V domains shown)
VH: QVQLVESGGGVVQPGRSLRLSCAASGFTFSSYAMHWVRQAPGKGLEWVAIIWFDGSQRYYADSVKGRFTISRDNSRDTLYLQMNSLRAEDTAVYYCARDELTGFDYWGQGTLVTVSS
VL: DIQMTQSPSSLSASVGDRVTISCRASQNIINFLNWYQQKPGKAPKVLIDAASSLRSGVPSRFSGSGSETDFSLTISSLQPEDFATYYCQQSFSTPLTFGGGTKVEIRR
notes: Fully human antibody from XENOMOUSE mice, tested as hybridoma supernatant
In test [2], B1 had a Potency (nM), n = 1 of 0.062 nM and a Potency (nM), n = 2 of 0.042 nM. The molecule further had an FACS GeoMean test 2 in test [3] of 2540. For the same molecule, in test [4], the Kd came to 0.103 nM, the koff is 0.00012 s⁻¹ and the on-rate (kon) turned out to be 1.17e+06 M⁻¹ s⁻¹.

B2: anti-LILRB1 antibody 3C1 (antibody, human IgG4, lambda, V domains shown)
VH: EVQLVESGGGLVQPGGSLRLSCAASGFTFSDYDMHWVRQATGKGLEWVATIDTAGDTYYPDSVRGRFTISRENAKNSLSLQMNSLRAGDTAVYFCARDVPGTGFDHWGQGTLVTVSS
VL: SSELTQDPAVSVALGQTVRITCQGDSLRSYYESWYQQKPGQAPVLVIYGKNNRPSGIPDRFSGSISGNTASLTITGTQAEDEADYYCNSRDNSGDHWVFGGGTRLTVLG
notes: Fully human antibody from XENOMOUSE XMG4-K/XMG4-KL mice, tested as hybridoma supernatant
In test [2], B2 registered a Potency (nM), n = 1 of 0.04 nM and a Potency (nM), n = 2 of 0.024 nM. Moreover, the FACS GeoMean, test 1 in test [3] is 1750. Besides, in test [4], the dissociation constant (Kd) came out at 0.168 nM, the off-rate (koff) worked out at 0.000247 s⁻¹ and the kon worked out at 1.47e+06 M⁻¹ s⁻¹.

B3: anti-LILRB1 antibody 19D6 (antibody, V domains shown)
VH: EVQLVESGGGLVQPGESLRLSCAASGFTFSDYDMHWVRQATGKGLEWVSAIDTAGDTYYLGPVKGRFTISRENAKNSLFLHMNSLRVGDTAVYYCIRDSGSSFDYWGQGTLVTVSS
VL: B2 VL with S1T, S29N, I65S, T73I, N88M, N92S, D95N, R104K, L105V
notes: as for B1
Consider B3, for which, in test [2], the Potency (nM), n = 1 amounted to 0.084 nM and the Potency (nM), n = 2 stood at 0.095 nM. For the same molecule, the FACS GeoMean test 2 in test [3] was found to be 2540. In test [4], the dissociation constant (Kd) stood at 0.176 nM, the koff is 0.000206 s⁻¹ and the kon came to 1.17e+06 M⁻¹ s⁻¹.
